Experimental data from patent publication US20130224191A1, “NOTUM PROTEIN MODULATORS AND METHODS OF USE” (priority 2010, published 2013).
Entries after “also recorded” stand apart in the source; their conditions may differ.

Tests used:
hNotum = biological target: T1, hNotum (Homo sapiens, UniProt Q6P988); experiment: Inhibition of hNotum lipase activity (Tween 20); assay type: biochemical; details: preincubation, various concentrations
T1 construct: 8x-His; Strep-tag II; IgK signal peptide/leader of the pSEC-CAG vector (N); made in house; host or cells: HEK293T (adherent) / suspension 293 cells
T1 sequence (Q6P988 20-496): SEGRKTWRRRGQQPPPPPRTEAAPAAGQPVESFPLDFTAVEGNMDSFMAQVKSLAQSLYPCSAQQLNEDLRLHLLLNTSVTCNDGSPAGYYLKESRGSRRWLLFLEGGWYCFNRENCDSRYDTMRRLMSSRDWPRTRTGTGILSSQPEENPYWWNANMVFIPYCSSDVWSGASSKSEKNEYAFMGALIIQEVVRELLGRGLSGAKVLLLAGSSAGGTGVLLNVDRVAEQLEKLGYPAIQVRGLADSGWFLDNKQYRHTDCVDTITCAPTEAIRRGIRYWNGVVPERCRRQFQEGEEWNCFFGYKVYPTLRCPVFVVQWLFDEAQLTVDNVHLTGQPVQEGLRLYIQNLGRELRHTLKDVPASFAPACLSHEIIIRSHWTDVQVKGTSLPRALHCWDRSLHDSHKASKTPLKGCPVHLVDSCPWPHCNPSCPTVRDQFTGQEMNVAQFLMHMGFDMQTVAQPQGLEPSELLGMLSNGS
Method: Briefly, recombinant hNotum (1 μg/well) was added to an assay buffer containing 50 mM Tris, pH 7.4, 33.3 mM CaCl2, and 0.33% Tween-20. When the Tween 20 monolauryl group is cleaved by lipases (e.g. hNotum), the free fatty acid forms an insoluble complex with the Ca^2+ cations resulting in a turbid solution, the OD of which can be measured at 405 nm to provide a measure of lipase activity. As a positive control, the activity of porcine pancreatic lipase (Sigma Aldrich) was measured in the same assay.
In order to take advantage of this enzymatic property and further exemplify the properties of the present invention, an assay was run to determine the effects of Notum modulators on the lipolytic activity of Notum. To that end, various concentrations of SC2.D2.2 were preincubated with hNotum for a set period prior to adding the mixture to the assay buffer and measuring the resulting enzymatic activity as described above. The results of the assay are graphically represented in FIG. 20

[1] = biological target: T2, chimeric human/mouse Notum (Homo sapiens, UniProt Q6P988, A205S/A256S/E196D/E289D/E487K/H276R/H373G/H396Y/K251E/L360Q/L418F/L429M/L483M/M474V/N299S/P379Q/P480Q/Q248L/Q311K/R218K/R307Q/R361W/S193P/T277S/T284N/V280I/V301M/V434F/V452I/Y171H); experiment: Neutralization of chimeric Notum in 293.TCF assay; assay type: cell-based
T2 construct: human mature Notum protein (residues 19-144) fused to the mouse Notum (mouse residues 150-484); His tag; made in house
T2 sequence (Q6P988 with tags, fused parts or gaps Y171H/S193P/E196D/A205S/R218K/Q248L/K251E/A256S/H276R/T277S/V280I/T284N/E289D/N299S/V301M/R307Q/Q311K/L360Q/R361W/H373G/P379Q/H396Y/L418F/L429M/V434F/V452I/M474V/P480Q/L483M/E487K): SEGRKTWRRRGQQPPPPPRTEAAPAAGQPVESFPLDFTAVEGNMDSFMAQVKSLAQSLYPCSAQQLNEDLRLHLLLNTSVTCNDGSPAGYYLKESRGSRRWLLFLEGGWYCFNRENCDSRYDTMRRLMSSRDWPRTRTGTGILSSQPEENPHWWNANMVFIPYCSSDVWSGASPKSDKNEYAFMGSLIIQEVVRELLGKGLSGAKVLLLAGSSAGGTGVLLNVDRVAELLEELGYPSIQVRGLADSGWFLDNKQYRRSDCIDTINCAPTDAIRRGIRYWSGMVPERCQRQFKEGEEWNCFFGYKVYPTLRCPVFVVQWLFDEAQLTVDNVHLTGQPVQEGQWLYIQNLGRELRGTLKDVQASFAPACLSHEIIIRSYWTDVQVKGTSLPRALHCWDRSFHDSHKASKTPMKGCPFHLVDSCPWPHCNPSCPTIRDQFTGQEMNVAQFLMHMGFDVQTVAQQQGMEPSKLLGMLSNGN
Description: To better understand the structural basis for the interaction of SC2.D2.2 with human Notum, a chimeric Notum protein was fabricated. This approach takes advantage of the fact that the orthologs are structurally related. To that end a chimeric Notum molecule composed of the N terminal of the human mature Notum protein (residues 19-144) fused to the mouse Notum (mouse residues 150-484) (genes both consistent with Example 7) was generated and expressed in a similar manner to that set forth in previous Examples. The BamHI restriction cleavage site in human Notum gene was used for construction of in-frame fusion Notum chimeric protein. An expression vector was then constructed containing the His tagged chimeric Notum sequence.
The chimeric human/mouse Notum protein described in Example 17 was placed into the 293.TCF assay. […] (Note that FIG. 1C would annotate the residue as D129, based upon numbering from the start of the mature Notum protein, whereas the D141 annotation is based upon the consideration of the wild-type human protein precursor).

macaque Notum N141D = experiment: Neutralization of point mutated macaque Notum, TCF assay; assay type: cell-based
Description: Similarly, the macaque residue at this position was point mutated to the human residue (N141D). […] However, these point mutants differed in their ability to be neutralized by SC2.D2.2 (FIG. 26).

Notum = biological target: T3, Notum (Homo sapiens, UniProt Q6P988); experiment: Neutralization of human Notum activity in 293.TCF luciferase assay; assay type: cell-based; design: 8x-His; Strep-tag II; IgK signal peptide/leader of the pSEC-CAG vector (N); made in house; host or cells: HEK293T (adherent) / suspension 293 cells
T3 sequence (Q6P988 20-496): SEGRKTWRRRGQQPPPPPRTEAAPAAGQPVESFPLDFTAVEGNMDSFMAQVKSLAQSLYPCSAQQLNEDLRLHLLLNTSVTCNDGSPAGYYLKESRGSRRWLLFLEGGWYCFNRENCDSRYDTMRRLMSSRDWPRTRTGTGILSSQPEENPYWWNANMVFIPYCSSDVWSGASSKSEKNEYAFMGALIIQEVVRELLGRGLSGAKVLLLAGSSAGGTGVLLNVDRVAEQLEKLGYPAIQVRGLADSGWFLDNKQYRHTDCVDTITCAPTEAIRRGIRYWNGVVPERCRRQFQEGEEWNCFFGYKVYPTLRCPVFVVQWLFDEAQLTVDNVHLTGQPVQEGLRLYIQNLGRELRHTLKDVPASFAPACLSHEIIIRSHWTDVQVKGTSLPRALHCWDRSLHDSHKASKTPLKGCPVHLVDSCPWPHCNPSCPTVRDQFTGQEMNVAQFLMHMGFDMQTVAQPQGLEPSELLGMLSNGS
Method: Using the 293.TCF cells described above, supernatants from hybridomas and/or purified antibodies shown to bind Notum by ELISA assays (Example 9) were screened for their ability to neutralize hNotum-His or hNotum-Fc activity as follows. 2.5×10^4 293.TCF cells were plated per well of a 96-well tissue culture plate in 50 μL of serum-free medium. After 23 hours of serum starvation, 10 μL of DMEM+0.2% FBS containing various Notum proteins at various concentrations were mixed with either 15 μL of supernatant from the hybridoma, or 15 μL of purified antibody at various concentrations, and allowed to incubate for 5 minutes at room temperature. The 25 μL antibody:Notum mixture was then added to the 293.TCF cells. After 1 hour, 25 μL of Wnt3A or control L-cell CM were added to each well. Eighteen hours after addition of CM, 100 μL of One-Glo solution (ProMega Corp.) was added to each well. The contents of each well were then mixed thoroughly to lyse the cells, 100 μL of lysate transferred to black 96-well plates, and the luminescence read after 5 minutes. […]

B1: SC2.D2.2 (antibody, V domains shown)
VH: DVQLVESGGGLVQPGGSRKISCAASGFTFSSYGMHWVRQAPEKGLEWVAYISSSTVTTYYADTVKGRFTISRDNANNTLFLQMTSLRSEDTAMYYCSRQNWDGGYFDVWGAGTTVTVSS
VL: DIVLTQSLASLAVSLGQRATISCRASKSVSSSGYSYMHWYQQKPGQPPKLLIYLASNLESGVPARFSGSGSGTDFTLNIHPVEEEDAATYYCQHSRALPLTFGAGTKLELKR
notes: also called murine SC2.D2.2
hNotum
  effect on lipase activity of Notum: substantially eliminate the lipase activity of Notum
[1]
  neutralization of chimeric Notum activity: can be neutralized
Macaque Notum N141D
  neutralization of mutant Notum protein: now enabled SC2.D2.2 to neutralize the mutant protein
Notum
  inhibition of human Notum activity: acts in a concentration dependent manner to antagonize the effects of added hNotum-His; also recorded: can inhibit the activity of human Notum in a dose dependent fashion; also recorded: specifically inhibit the human version of Notum
